Assay results: the RNAGym collection of RNA variant scans (doi:10.1021/acssynbio.7b00057)

B1: Pistol ribozyme (parent)
chain: GGGUCGUUGUUCCAUAAUCGCGUGGAUAUGGCACGCAAGUUUCUACCGGGCACCGUAAAUGUCCGACUGGAGCCGUUCGGGCGGCUAUAAACAGACCUCAGGCCCGAAGCGUGGCGGCACCUGCCGCCGGUGGUAAAAAAGAUCGGAAGAGCACACGUCU

Variants of: B1
Assay: aptazyme ON/OFF ratio, guanine; higher = stronger switching; co-transcriptional cleavage with and without guanine

In order of falling “aptazyme ON/OFF ratio” value:
1. U7A G9A U11G C12U  2.19
2. U7A G9A  1.83
3. U7A G9A U11A C12U  1.54
4. U7A C12A  1.54
5. U7A C12U  1.48
6. U7A G9A U10A U11G C12G C13G  1.44
7. U7A C12G  1.44
8. U7A G9A U10A U11G C12U C13U  1.42
9. U7A G9A U11A C12U C13U  1.42
10. U7A G9A U10A C12G C13U  1.41
11. U7A C12A C13A  1.4
12. U7A G9A U10A U11A C12U C13U  1.39
13. U7A G9A U11G C13U  1.38
14. U7A C12U C13U  1.38
15. U7A C12G C13A  1.38
16. U7A G9A U10A U11A  1.34
17. U7A G9A U11A C12A  1.34
18. U7A G9A U10G U11G C12U C13G  1.33
19. U7A G9A U10G C12U C13U  1.32
20. U7A G9A U10A U11G C12G C13A  1.32
21. U7A G9A U10A U11A C12U C13G  1.32
22. U7A G9A U10G U11A C12G C13G  1.31
23. U7A G9A U10C U11G  1.31
24. U7A G9A U10C U11A C12U  1.31
25. U7A G9A U10A U11G  1.3
26. U7A G9A U10A C12G C13G  1.3
27. U7A G9A U10C U11G C12G  1.3
28. U7A G9A U10G C13A  1.29
29. U7A C12U C13A  1.29
30. U7A G9A U11G C12G  1.29
31. U7A G9A U10C U11G C12U  1.29
32. U7A G9A U10G C13U  1.28
33. U7A G9A U11A C12G C13U  1.28
34. U7A G9A U11G C12A C13U  1.28
35. U7A G9A U11G C12A C13G  1.28
36. U7A G9A U11C C12U C13G  1.27
37. U7A C12G C13U  1.27
38. U7A G9A U10C U11A  1.27
39. U7A G9A U10C U11A C12G  1.27
40. U7A G9A U11G C13A  1.26
41. U7A C12G C13G  1.26
42. U7A G9A U10G U11G C12U C13U  1.26
43. U7A G9A U10A U11G C12G C13U  1.25
44. U7A G9C  1.25
45. U7A G9A U10A C12G C13A  1.25
46. U7A G9A U10A U11A C12A  1.25
47. U7A G9A U10G U11G C13A  1.25
48. U7A G9A U10G U11G C13G  1.25
49. U7A G9A U10C U11A C12A  1.24
50. U7A G9A U10C U11G C12A C13G  1.24
51. U7A G9A U11A C12U C13A  1.24
52. U7A G9A U11A C12G  1.23
53. U7A G9A U10C U11A C12U C13G  1.23
54. U7A C12A C13U  1.22
55. U7A G9A U10C C12A C13G  1.22
56. U7A G9A U10A U11G C12A C13G  1.22
57. U7A G9A U11C C12U C13U  1.22
58. U7A G9A U10C U11A C12U C13U  1.22
59. U7A G9A U11A C12U C13G  1.22
60. U7A G9A U10G U11C C12U C13U  1.21
61. U7A G9A U10C C12A C13U  1.21
62. U7A G9C U10A U11C C12G  1.21
63. U7A G9A U10G U11C C12A  1.21
64. U7A G9A U10A U11A C12U  1.21
65. U7A G9A U10A U11A C12G C13G  1.21
66. U7A C12A C13G  1.2
67. U7A G9A U10G U11C C12U C13A  1.2
68. U7A G9A U10C C12U C13U  1.2
69. U7A G9A U10C U11A C12U C13A  1.2
70. U7A G9A U10A C12U C13U  1.2
71. U7A G9A U10C U11A C12A C13A  1.2
72. U7A G9A U11A C12G C13A  1.19
73. U7A G9A U10A U11A C12U C13A  1.19
74. U7A G9A U10G U11C C13A  1.19
75. U7A G9A U10A U11C C12G  1.19
76. U7A G9A U10C U11A C12A C13U  1.19
77. U7A G9A U10A U11C C12U C13G  1.18
78. U7A G9A U10G U11C C12U C13G  1.18
79. U7A G9A U10A U11C C12A C13A  1.18
80. U7A G9A U11G C12A  1.18
81. U7A G9A U10C U11G C12A C13A  1.18
82. U7A G9A U10C U11C C12A  1.18
83. U7A G9C U10A C13U  1.18
84. U7A G9A U10G C13G  1.17
85. U7A G9A U10A U11G C12U C13A  1.17
86. U7A G9A U10G U11A C12G C13U  1.17
87. U7A G9A U10G U11A C12U C13U  1.17
88. U7A G9A U10G U11G C12U C13A  1.17
89. U7A G9A U11A C12G C13G  1.16
90. U7A G9A U10A U11G C12A C13A  1.16
91. U7A C12U C13G  1.16
92. U7A G9A U10G U11C C12A C13A  1.16
93. U7A G9A U10A U11C C12A  1.16
94. U7A G9C U10A C13A  1.16
95. U7A G9A U10A U11C C12U C13U  1.15
96. U7A G9A U10A U11G C12U C13G  1.15
97. U7A G9A U10A U11C C12A C13G  1.15
98. U7A G9A U10A U11A C12G  1.15
99. U7A G9A U10G C12U C13G  1.14
100. U7A G9A U10G U11C C12A C13G  1.14
101. U7A G9C U10A U11A C12U C13A  1.13
102. U7A G9A U10A U11C C12U C13A  1.13
103. U7A G9A U10C C12A C13A  1.13
104. U7A G9C U10A U11A C12A C13A  1.13
105. U7A G9C U10A U11C C12U C13G  1.13
106. U7A G9C C13U  1.12
107. U7A G9A U11G C13G  1.12
108. U7A G9A U10C U11C C12A C13U  1.12
109. U7A G9A U10G U11A C12G C13A  1.12
110. U7A G9A U10C C12U C13G  1.12
111. U7A G9C U10A U11C C12U C13U  1.12
112. U7A G9A U10G U11C C13G  1.11
113. U7A G9A U10G U11C C12A C13U  1.11
114. U7A G9A U10A C12U C13G  1.11
115. U7A G9C U10A U11A C12U C13U  1.1
116. U7A G9C U10A U11A C12U C13G  1.1
117. U7A G9A U11G C12A C13A  1.1
118. U7A G9C U10A U11C C12A C13G  1.1
119. U7A G9A U11C C12U C13A  1.1
120. U7A G9A U10A U11C C12A C13U  1.1
121. U7A G9A U10A U11C C12U  1.1
122. U7A G9A U10A C12U C13A  1.1
123. U7A G9A U10C U11G C12A C13U  1.1
124. U7A G9C C12U C13U  1.1
125. U7A G9C U10A U11C C12U C13A  1.1
126. U7A G9A U10G U11A C13A  1.09
127. U7A G9A U10C U11C C12G C13G  1.09
128. U7A G9A U10G U11A C12U C13A  1.09
129. U7A G9C U10A U11C C12A C13U  1.09
130. U7A G9A U10A U11G C12A C13U  1.09
131. U7A G9C U10A U11A C12A C13U  1.09
132. U7A G9A U10C U11C C12G  1.09
133. U7A G9A U10G U11G C13U  1.09
134. U7A G9A U10A U11A C12G C13A  1.09
135. U7A G9A U10C U11C C12A C13G  1.08
136. U7A G9A U10C C12U C13A  1.08
137. U7A G9C U10A U11C C12A  1.08
138. U7A G9A U10G U11C C12U  1.08
139. U7A G9A U10G U11C C12G  1.08
140. U7A G9C U10A C13G  1.08
141. U7A G9A U10A U11C  1.07
142. U7A G9A U10C U11C C12G C13A  1.07
143. U7A G9C U10A U11A  1.07
144. U7A G9C U10A U11C C12U  1.07
145. U7A G9C U10A U11A C12A C13G  1.07
146. U7A G9C C12U C13G  1.07
147. U7A G9A U10G U11A C13U  1.06
148. U7A G9C C13G  1.06
149. U7A G9A U10G C12U C13A  1.06
150. U7A G9A U10C U11C C12A C13A  1.06
151. U7A G9A U10G U11A C12U C13G  1.06
152. U7A G9C U10A U11C C12A C13A  1.06
153. U7A G9C C12G C13G  1.05
154. U7A G9A U10C U11A C12A C13G  1.05
155. U7A G9A U10A U11A C12G C13U  1.05
156. U7A G9C C12U C13A  1.05
157. U7A G9A U10C U11C C12G C13U  1.04
158. U7A G9C U10A U11C  1.04
159. U7A G9A U10C U11C C12U C13U  1.04
160. U7A G9A U10C U11C C12U C13G  1.04
161. U7A G9A U10C U11G C12A  1.04
162. U7A G9A U10G U11A C13G  1.03
163. U7A G9A U10C U11C C12U C13A  1.03
164. U7A G9A U10C U11C C12U  1.03
165. U7A G9C C13A  1.02
166. U7A G9A U10G U11C C13U  1.02
167. U7A G9A U10C U11C  1.01
